Values joined by “and” are separate entries in the source; they are usually repeats but may differ in a detail not shown here. Equal entries are not always repeated.

This series can be described thus: patients with anti-drug antibodies; higher = more immunogenic.

B1: unnamed (protein)
chain 1: QMQLVESGGGVVQPGRSLRLSCAASGFTFRTYGMHWVRQAPGKGLEWVAVIWYDGSNKHYADSVKGRFTITRDNSKNTLNLQMNSLRAEDTAVYYCARAPQWELVHEAFDIWGQGTMVTVSS
chain 2: SYVLTQPPSVSVAPGQTARITCGGNNLGSKSVHWYQQKPGQAPVLVVYDDSDRPSWIPERFSGSNSGNTATLTISRGEAGDEADYYCQVWDSSSDHVVFGGGTKLTVL
For the protein B1, the “patients with anti-drug antibodies” value is 2.1%.

B2: unnamed (protein)
chain 1: EVQLVQSGAEVKKPGESLKISCKGSGYSFTTYWLGWVRQMPGKGLDWIGIMSPVDSDIRYSPSFQGQVTMSVDKSITTAYLQWNSLKASDTAMYYCARRRPGQGYFDFWGQGTLVTVSS
chain 2: DIQMTQSPSSLSASVGDRVTITCRASQGISSWLAWYQQKPEKAPKSLIYAASSLQSGVPSRFSGSGSGTDFTLTISSLQPEDFATYYCQQYNIYPYTFGQGTKLEIK
Regarding B2, the “patients with anti-drug antibodies” value is 4%.

B3: unnamed (protein)
chain 1: QVQLQESGPGLVRPSQTLSLTCTVSGYSITSDHAWSWVRQPPGRGLEWIGYISYSGITTYNPSLKSRVTMLRDTSKNQFSLRLSSVTAADTAVYYCARSLARTTAMDYWGQGSLVTVSS
chain 2: DIQMTQSPSSLSASVGDRVTITCRASQDISSYLNWYQQKPGKAPKLLIYYTSRLHSGVPSRFSGSGSGTDFTFTISSLQPEDIATYYCQQGNTLPYTFGQGTKVEIK
As for B3, the “patients with anti-drug antibodies” value turned out to be 2%.

B4: unnamed (protein)
chain 1: QVQLQQWGAGLLKPSETLSLTCAVYGGSFSGYYWSWIRQPPGKGLEWIGEINHSGSTNYNPSLKSRVTISVDTSKNQFSLKLSSVTAADTAVYYCARGYYDILTGYYYYFDYWGQGTLVTVSS
chain 2: EIVLTQSPATLSLSPGERATLSCRASQSVSRYLAWYQQKPGQAPRLLIYDASNRATGIPARFSGSGSGTDSTLTISSLEPEDFAVYYCQQRSNWPRTFGQGTKVEIK
Regarding B4, the “patients with anti-drug antibodies” value was determined as 4.4%.

B5: unnamed (protein)
chain 1: EVQLVQSGAEVKKPGESLKISCKGSGYSFTDYYMKWARQMPGKGLEWMGDIIPSNGATFYNQKFKGQVTISADKSISTTYLQWSSLKASDTAMYYCARSHLLRASWFAYWGQGTMVTVSS
chain 2: DIVMTQSPDSLAVSLGERATINCESSQSLLNSGNQKNYLTWYQQKPGQPPKPLIYWASTRESGVPDRFSGSGSGTDFTLTISSLQAEDVAVYYCQNDYSYPYTFGQGTKLEIK
For the protein B5, the “patients with anti-drug antibodies” value amounted to 17.5%.

B6: unnamed (protein)
chain 1: QVQLQQSGAELVKPGASVKLSCKASGYTFRSYDINWVRQRPEQGLEWIGWIFPGDGSTKYNEKFKGKATLTTDKSSSTAYMQLSRLTSEDSAVYFCARWTVVGPGYFDVWGAGTTVTVSS
chain 2: QIVLTQSPAIMSASPGEKVTITCSASSSVSYMNWFQQKPGTSPKLWIYSTSNLASGVPARFSGSGSGTSYSLTISRMEAEDAATYYCQQRSSYPNTFGGGTKLEIK
Turning to B6, the “patients with anti-drug antibodies” value is 28%.

B7: unnamed (protein)
chain 1: QVQLVESGGGLVKPGGSLRLSCAASGFTFSDYYMNWIRQAPGKGLEWVSYISSSGSIIYYADSVKGRFTISRDNAKNSLYLQMNSLRAEDTAVYYCAREGRIAARGMDVWGQGTTVTVSS
chain 2: DIQMTQSPSSLSASVGDRVSITCRPSQSFSRYINWYQQKPGKAPKLLIHAASSLVGGVPSRFSGSGSGTDFTLTISSLQPEDFATYYCQQTYSNPPITFGQGTRLEMK
In the case of B7, the “patients with anti-drug antibodies” value is 2.9%.

B8: unnamed (protein)
chain 1: EVQLVESGGGLVQPGGSLRLSCAASGFTFSSYVMSWVRQAPGKGLEWVATISSGGSYTYYPDSVKGRFTISRDNAKNTLYLQMNSLRAEDTAVYYCARRGDSMITTDYWGQGTLVTVSS
chain 2: DIQMTQSPSSLSASVGDRVTITCKASQDVGTAVAWYQQKPGKAPKLLIYWASTRHTGVPSRFSGSGSGTDFTLTISSLQPEDFATYYCQQYSSYRTFGQGTKVEIK
B8: the “patients with anti-drug antibodies” value came to 0%.

B9: unnamed (protein)
chain 1: QVQLVQSGAEVKKPGSSVKVSCKASGYTFTDYEMHWVRQAPGQGLEWIGAVAPETGGTAYNQKFKGRATITADKSTSTAYMELSSLRSEDTAVYYCTSTVVPFAYWGQGTLVTVSS
chain 2: QIQLTQSPSSLSASVGDRVTITCSASSSVSYMYWYQQKPGKAPKAWIYRTSNLASGVPSRFSGSGSGTDYTLTISSLQPEDFATYYCQQYQSLPLTFGGGTKVEIK
Turning to B9, the “patients with anti-drug antibodies” value stood at 0%.

B10: unnamed (protein)
chain 1: QVQLVQSGAEVKKPGASVKVSCKASGYIFITYWMTWVRQAPGQGLEWMGQIFPASGSADYNEKFEGRVTMTTDTSTSTAYMELRSLRSDDTAVYYCARGGGGFAYWGQGTLVTVSS
chain 2: DIQMTQSPSSLSASVGDRVTITCRTSENIYSYLAWYQQKPGKAPKLLIYNAKTLAEGVPSRFSGSGSGTDFTLTISSLQPEDFATYYCQHHYGIPFTFGQGTKVEIK
For B10, the “patients with anti-drug antibodies” value came to 6.5%.

B11: unnamed (protein)
chain 1: EVQLVESGGGLVQPGGSLRLSCAASGFTFSSSGMSWVRQAPGKGLEWVSVIASSGSNTYYADSVKGRFTISRDNSKNTLYLQMNSLRAEDTAVYYCARSIFYTTWGQGTLVTVSS
chain 2: not shown
On to B11, for which the “patients with anti-drug antibodies” value was 26%.

B12: unnamed (protein)
chain 1: QVQLVQSGAEVKKPGASVKVSCKASGYTFTNYGLSWVRQAPGQGLEWMGWISANNGDTNYGQEFQGRVTMTTDTSTSTAYMELRSLRSDDTAVYYCARDSSSSWARWFFDLWGRGTLVTVSS
chain 2: SYVLTQPPSVSVAPGKTARITCGGNIIGSKLVHWYQQKPGQAPVLVIYDDGDRPSGIPERFSGSNSGNTATLTISRVEAGDEADYYCQVWDTGSDPVVFGGGTKLTVL
Turning to B12, the “patients with anti-drug antibodies” value came to 0.5%.

B13: unnamed (protein)
chain 1: QVKLQESGAELARPGASVKLSCKASGYTFTNYWMQWVKQRPGQGLDWIGAIYPGDGNTRYTHKFKGKATLTADKSSSTAYMQLSSLASEDSGVYYCARGEGNYAWFAYWGQGTTVTVSS
chain 2: DIELTQSPASLSASVGETVTITCQASENIYSYLAWHQQKQGKSPQLLVYNAKTLAGGVSSRFSGSGSGTHFSLKIKSLQPEDFGIYYCQHHYGILPTFGGGTKLEIK
With B13, the “patients with anti-drug antibodies” value amounted to 68.1%.

B14: unnamed (protein)
chain 1: QVQLQQSGAEVKKPGSSVRVSCKASGGTFNNNAINWVRQAPGQGLEWMGGIIPMFGTAKYSQNFQGRVAITADESTGTASMELSSLRSEDTAVYYCARSRDLLLFPHHALSPWGRGTMVTVSS
chain 2: SSELTQDPAVSVALGQTVRVTCQGDSLRSYYASWYQQKPGQAPVLVIYGKNNRPSGIPDRFSGSSSGNTASLTITGAQAEDEADYYCSSRDSSGNHWVFGGGTELTVL
As for B14, the “patients with anti-drug antibodies” value stood at 2.4%.

B15: unnamed (protein)
chain 1: QVQLVESGGGVVQPGRSLRLSCAASGFTFSSYGMHWVRQAPGKGLEWVAVIWYDGSNKYYADSVKGRFTISRDNSKNTLYLQMNSLRAEDTAVYYCARDPRGATLYYYYYGMDVWGQGTTVTVSS
chain 2: DIQMTQSPSSLSASVGDRVTITCRASQSINSYLDWYQQKPGKAPKLLIYAASSLQSGVPSRFSGSGSGTDFTLTISSLQPEDFATYYCQQYYSTPFTFGPGTKVEIK
As to B15, the “patients with anti-drug antibodies” value is 2% and 0%.

B16: unnamed (protein)
chain 1: QAYLQQSGAELVRPGASVKMSCKASGYTFTSYNMHWVKQTPRQGLEWIGAIYPGNGDTSYNQKFKGKATLTVDKSSSTAYMQLSSLTSEDSAVYFCARVVYYSNSYWYFDVWGTGTTVTVSG
chain 2: QIVLSQSPAILSASPGEKVTMTCRASSSVSYMHWYQQKPGSSPKPWIYAPSNLASGVPARFSGSGSGTSYSLTISRVEAEDAATYYCQQWSFNPPTFGAGTKLELK
As to B16, the “patients with anti-drug antibodies” value stood at 45.5%.

B17: unnamed (protein)
chain 1: QAYLQQSGAELVRPGASVKMSCKASGYTFTSYNMHWVKQTPRQGLEWIGGIYPGNGDTSYNQKFKGKATLTVGKSSSTAYMQLSSLTSEDSAVYFCARYDYNYAMDYWGQGTSVTVSS
chain 2: QIVLSQSPAILSASPGEKVTMTCRASSSVSYMHWYQQKPGSSPKPWIYATSNLASGVPARFSGSGSGTSYSFTISRVEAEDAATYYCQQWTFNPPTFGGGTRLEIK
With B17, the “patients with anti-drug antibodies” value stood at 0%.

B18: unnamed (protein)
chain 1: EVQLVESGGGLVQPGGSLRLSCAASGFTFSSHDMHWVRQATGKGLEWVSGIGTAGDTYYPDSVKGRFTISRENAKNSLYLQMNSLRAGDTAVYYCARDRYSPTGHYYGMDVWGQGTTVTVSS
chain 2: DIQMTQSPSTLSASVGDRVTITCRASQSISSWLAWYQQKPGKAPKLLIYKASSLESGVPSRFSGSGSGTEFTLTISSLQPDDFATYYCKQYADYWTFGQGTKVEIK
For the protein B18, the “patients with anti-drug antibodies” value worked out at 3%.

B19: unnamed (protein)
chain 1: QGQLVQSGAEVKKPGASVKVSCKASGYTFTDYEMHWVRQAPIHGLEWIGVIESETGGTAYNQKFKGRVTITADKSTSTAYMELSSLRSEDTAVYYCAREGITTVATTYYWYFDVWGQGTTVTVSS
chain 2: DVVMTQSPLSLPVTLGQPASISCRSSQSIVHSNGNTYLEWYLQKPGQSPQLLIYKVSNRFSGVPDRFSGSGSGTDFTLKISRVEAEDVGVYYCFQGSHVPLTFGQGTKLEIK
Regarding B19, the “patients with anti-drug antibodies” value stood at 1%.

B20: unnamed (protein)
chain 1: EVQMVQSGAEVKKPGEPLKISCKGSGYKFGTHWIGWVRQRPGKGLEWMGIIHPADSETKYSPSFQGQVSFSADKSSNTAYLHWSTLRASDTAMYYCARRSGSSSWYALDFWGQGTMVTVSS
chain 2: QSVLTQSPSASGTPGQRVTISCSGGSSNIGSNTVNWYQQFPGAAPKLLIYTNNQRPSGVPDRFSGSKSGTSASLAISGLQSEDEADYYCATWDDSLNGLYVFGTGTKVTVL
Regarding B20, the “patients with anti-drug antibodies” value came out at 2.1%.

The values above are taken from the FLAb antibody collection.
